Assay [1] deals with proEGF on the surface of NCI-H292 cell membranes (human) (UniProt P01133). As to the kind of experiment: flow cytometry on NCI-H292 cells, background staining with normal mouse IgG1.
Assay [2] shares this target. Described as above. This is another data set of the same source.

Read-outs that look alike come from different tables or passages of the source.

UniProt P01133, sequence (P01133 23-1207): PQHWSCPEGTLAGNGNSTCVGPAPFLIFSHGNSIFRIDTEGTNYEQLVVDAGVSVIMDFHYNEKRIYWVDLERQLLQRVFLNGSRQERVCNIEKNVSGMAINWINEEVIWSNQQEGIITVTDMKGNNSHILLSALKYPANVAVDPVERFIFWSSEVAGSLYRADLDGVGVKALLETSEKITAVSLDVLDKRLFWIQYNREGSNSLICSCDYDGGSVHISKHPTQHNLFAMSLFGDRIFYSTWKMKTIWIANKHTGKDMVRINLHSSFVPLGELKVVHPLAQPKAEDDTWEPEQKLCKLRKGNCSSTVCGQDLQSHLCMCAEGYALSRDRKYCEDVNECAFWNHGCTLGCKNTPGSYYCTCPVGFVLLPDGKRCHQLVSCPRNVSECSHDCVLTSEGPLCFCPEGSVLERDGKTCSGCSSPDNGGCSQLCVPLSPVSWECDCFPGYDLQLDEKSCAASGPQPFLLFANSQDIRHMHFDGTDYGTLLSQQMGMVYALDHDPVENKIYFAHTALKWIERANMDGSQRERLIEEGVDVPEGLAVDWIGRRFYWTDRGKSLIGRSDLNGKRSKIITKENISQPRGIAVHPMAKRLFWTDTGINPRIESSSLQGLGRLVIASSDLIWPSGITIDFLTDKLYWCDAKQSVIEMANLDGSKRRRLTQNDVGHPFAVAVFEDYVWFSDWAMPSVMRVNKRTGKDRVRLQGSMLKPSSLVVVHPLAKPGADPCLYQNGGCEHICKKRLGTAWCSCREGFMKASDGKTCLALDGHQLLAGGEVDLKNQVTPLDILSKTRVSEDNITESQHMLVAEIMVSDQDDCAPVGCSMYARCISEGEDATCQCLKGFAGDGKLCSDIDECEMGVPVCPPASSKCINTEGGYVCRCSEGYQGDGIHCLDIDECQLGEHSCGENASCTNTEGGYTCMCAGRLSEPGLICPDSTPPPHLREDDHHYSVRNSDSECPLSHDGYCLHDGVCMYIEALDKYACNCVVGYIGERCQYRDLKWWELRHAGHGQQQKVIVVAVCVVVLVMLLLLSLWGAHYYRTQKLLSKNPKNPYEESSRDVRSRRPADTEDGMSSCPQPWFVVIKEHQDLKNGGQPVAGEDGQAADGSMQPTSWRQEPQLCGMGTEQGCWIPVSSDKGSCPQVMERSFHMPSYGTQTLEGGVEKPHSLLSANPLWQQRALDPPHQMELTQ

In the case of “normal mouse IgG1 (produced by R&D Corp.) (antibody)”, the average fluorescence intensity in assay [1] is 4.62; in assay [2], 8.44.

(Values after patent EP1314779B1.)
